Data from the domain aggregation screens of Martell et al. (2025).

Experiment: soluble fraction after stress (log2 fold change); higher = more stays soluble; pooled small domains, quantitative proteomics
Conditions: stress: 75 degC
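Also: 20 min heating vs room temperature control held 20 min.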

Row | Sequence | soluble fraction (log2)
1 | HMSDTVDITKLGIAGKTKEAAEALLKENGFSVESKEENSDTIEKGKVISYSPTKPKNGDRITLIVSSGKK | 0.294
2 | HMSEDTYNTLTKGTRVYNGVDYGAKYGYNPLYYFLNYNDLRIAYGADPAKLVEHYALFGIKENRVANRQIT | -1.33
3 | HMSEEELETSGLVKRSAKGNLYDIFRHRVMVPIIDVRGAIIAFGGRVLDDSKPKYINSPETMVY | -0.0708
4 | HMSEEQLKAFLEKVQGDTSLQEKLKAAADANAVVEIAKEAGFSISADDLKNAQSELSEEELE | -0.00468
5 | HMSEEVDVPDLVGMQLEEAEKSLEPLGLKLKIAKEIPNSEFEKGKIVDQKTKAGEKVKTGYTIEVTVSSG | -0.126
6 | HMSEFAYPISLNGKTKFNLALSLALTKEEIEKEVLANADVQKFLNGQTPKKLIVVPGKIVNVV | -0.386
7 | HMSEGEMSQWIIAQAKQQGGGFQPDAARLLGSYVGNNTLRARQEIDKLLTYVGPSRVVTPEDVVLLTA | -0.23
8 | HMSEHKFIVPEEFNLKRLDQTVAAQFEKISRTKISKIIKSSLLKVNDKVVTDQSIKIKQDDVITFTEIKDQ | -0.421
9 | HMSEKRLHLVVDESDVNTRIDKYIADELDGYSRSFIQKLIKDNNVLVNGRAVKPNYNIGISDNIDIVLPKL | 0.0186
10 | HMSELIDSLTEAVRSAPDAVPLRLHLAELLLADGQRDRAFAQLGQVLAKDPQNARALEMLGVGS | -0.129
11 | HMSELSEVIEKTFEELPEELKLIVKLREIDDLSYDEISNKIGIPIGTVRSRLHRAREILINIIKN | -2.5
12 | HMSELSGSQLKAIREEKHIPLEQVASATRIRLSLLEALEMDEYAELGSRTQARGFLKLYADFLGVPFEA | -1.53
13 | HMSEMDNMEWVREQYFQNMIYEIGEWVRDKKTGIVGEVVKRGTNYVTVVQEDFSLHKIWLEDLETTEK | -0.841
14 | HMSEMLPFDEARRQFERDYLVQLLKLTSGNVSQAARLARRNRTDFYALLGRHQLEPASFKPE | -0.971
15 | HMSEMVIPEDFLAALETNPQAKAFYATLNRQNQYAVYHRLQTAKRPETRAKRIADFVAQLAAGKRF | -1.03
16 | HMSEPHPPFQVVAQFPYKSEYEDDLNFEKDQIITVTSIEDDEWYYGDFKNKGGELVEGIFPKSFVTVK | -0.31
17 | HMSEPQYKVLFSNLDDRDGGAIVTALGAMNVPYKYNDTGTALLVPADRVYDARLQLASQGLPRG | 0.262
18 | HMSEPTVVAINETLTSERLDRYLTTQLPHISRGGIQRLLRKGNILVDGKPAKPTQHPVAGQTVEITWPIPK | -0.607
19 | HMSEQMQVGELVFQLHRKAIKNLHINVLPPDGFVRVSAPQAMTETAIRTAVISRLPWIRRQQQAFAAQ | -3.48
20 | HMSERVVEIDPSQLRPGLFIRLPSGWMNHPFLFNQFRINSAEQVEIIQKLGLKTVQYLPERSSTQALPRA | -1.95
21 | HMSESEDFQNRWRPWRSLLDDETPVVREALVDQLKLFPEEGRLFLQQMSEEDDPISARHAFELIKSLGW | -0.363
22 | HMSETAVTYNEDFEADGSLRPNEQAVLDAFTGVLKLTVSELEKKTGLRNVVPVVASLMAKGAVEVSEELK | -0.0304
23 | HMSETEWGEIYRKVMAAGLIPARSVRERLLALPSIEPLLQAAEAAGSKGMLDETLLDSLLSKT | 0.0662
24 | HMSETLESYTTRLKQLEEIADSFQGVDKTFAIQAGREIRVMVVPEQISDDDMILLARDISNQIEENLDY | -0.234
25 | HMSEVIYVAEDNVGQRIDVFLVNKLVDASRANIQKNIVDGVILVNNKNVKANYKLRLGDVVEIRTQ | -1.38
26 | HMSEVPAAVLVTGGSINLREAPSTDATIIDVAQVGEKMTVLAEKNSWYQVSRGGRNVWVASWVVDPLT | -0.066
27 | HMSEVTYQETLRLLRRAIDVLPQQSRQIILLGLSGKNNNEVAEMLGISVNTVKTLKKGAYKSLRNSL | -1.87
28 | HMSEYITEGWLREKFGLGWGTEVHLPLDSRLTPAAHQLLEERKIVIKYIDAEGRVFNPDKSGEEAPVQ | -0.41

Row | Sequence | soluble fraction (log2)
29 | HMSEYVIVTGEKVNLRVGPGMDYEIAGQVVKGDKLELLASEGDWSKVKTGSGSIYYISSSLVQKA | -0.157
30 | HMSFDGFSDRLKSVLNSGKYTQKEAAEKINISEYSFTKYLNGRIPQTEILYKIARLYNKSMEWLLTGKDPI | -2.74
31 | HMSFGWELYKGKEGIADTDLHPSGWIRIADKRVFAVSEGEFIEKGLEIIVLSVDGNRIVVRELK | -1.93
32 | HMSFGWETLEGKEGVTDTDLHPSGWVKVGDEKIFVVSQGEFLGKGTDIVVVSVDGNRVVVKELI | -0.998
33 | HMSFKQARFMMDAANGKALAWLYSHAEVLDRKDQGENIEIHVMISPADLSRFVNAFGYQPVQS | -1.07
34 | HMSFMFEISVIRSQYNMQDPESKTGFYNAIAKKLLEFPEKLERDNYTEAVAREYMIPETDLKNLVNSMGG | -3.12
35 | HMSFNGTILSNYQKTYPNLAKFTYDQANDALVYEGNFIKLNGYGLSRIDPVFFNMNPDEIFIFIKNG | -3.85
36 | HMSFNTNENKNLLWELMNKHNLFKDIDNQHYQEVQKLFEEEIVFISNNNKSLDLVEQNKKFLSSIITKLNK | -1.84
37 | HMSFPQVELNTNKGRIVLELNSEKAPKTVANFLEYVRDGFYDGVIFHRVIDGFMIQGGGFDENFKEKA | -0.6
38 | HMSFSPYLVRVSITDLNIRKGPGTNYAKTGKFTGKGVFTIVEMQTGKGSDTGWGRLKSGAGWISLDYTEKI | -3.47
39 | HMSFSQNIGKRIREERLRLNLTQEKLAEDVNLSMAYIGQVERGDRSLTLDNLIIVAKRLGVTIDYLLS | -4.13
40 | HMSFTSQSVLIEIVRGTTQLTPLAAAVGANKREVVLAVHRLKQRGLVVSAGLGQYAATEAGRAFLTAGREV | -3.43
41 | HMSFYSVVISQDGSMLVAENRNEIYSNEELLELASEVNEKTGTIGTIGSLMYYKADKGGYTLITFLDNS | -4.18
42 | HMSGALDTVVGIRMLKLLSTPIEKSKAFQVGIINKDGKKLRDPTSGERQHYTFLNRFVFKVQYALMRS | -0.549
43 | HMSGDYRPLYPNLPESEKSEAFNLLAGSALPARLDDRTGDIMVPADRYYEARMILANAGFAD | 0.17
44 | HMSGEMGIIVAKRLPIRSEPDELATRAFVLKAGTRVKIVKHLNGWLEIVHDGKAGYVQDLEVYVRVIG | -0.806
45 | HMSGEPVKSTLPGNVFKILVAVGDSVKKGQRMFVLEAMKMEIDVNAPKDGLVTSIEVQQGQTVANGQILAK | -0.0981
46 | HMSGIESIVIPLKGLDFDMISSTLTPQLKQAIKYDKQSDSIILVGTNAKVNIIAKQVNAMVEVYKLKT | -1.81
47 | HMSGIGTTIKMLRENKNISQEELGNVLGVSDKTISSWEINRTEPKMGIVQLLADYFGVSTDYLIKG | -0.447
48 | HMSGILINGELYKPGEQMSLKQRLSIQARIQMQGEDTVKPEMLKDFYNSGGPLSKEESSEYMKSQN | -0.515
49 | HMSGIQNNFITRLKKVLAPTIGIAEEISDLLNISIDSAYRRIRGETDFTFEEIYIITRKHKISIDEIYG | -3.88
50 | HMSGIVPAAPPLRPDLDIKWHTGDKVRHAKWGEGTIVSVKGEGEETELKIAFPGQGIRPFMQKYAPITR | 0.218
51 | HMSGLEDIKKKILEDAGIKKGSVKFVKVDKDYDDGIWKYEIDFVYDGKEYEYEIEVETGKILSRKTEKSD | 0.00588
52 | HMSGLVPAIGTKGEEGYIRESDIPGSNVKNPEEALAYMEWLKTQPSELLIPLYDEQGNVIGQFAVS | 0.461
53 | HMSGMEKLAIQEIEKEIKSFVKGDILIELTGKNRATAYVSEKNVGALIGKKGERINSIEKRLGVGIDVRPY | -0.23
54 | HMSGMNSDHRVNGNIHTFLIQHDLGTKWSVFTEQLLKQVFRSFLPDKELNFQTTDSTVILKVSLGSDFNEH | -0.0399
55 | HMSGPAEDLLAIEGMDKELAYELAARGIRTRDELADQSLDELEAVPGLDPVRAGQLIMAARAHLFENAGQ | 0.0744
